Assay results published in patent publication US9669118B2, “Method of labelling a biologically active molecule with 5-fluoro-5-deoxypentose or a 3-fluoro-3-deoxypentose” (UNIVERSITY COURT OF THE UNIVERSITY OF ST. ANDREWS, priority 2011, dated 2017).

Assay: Stability study of the conjugate in phosphate-buffered saline
Assay type: physicochemical
Details: 37° C.
Experimental: A stability study confirmed that the conjugate 4a is stable in phosphate-buffered saline (PBS) at least for 8 hours at 37° C., which is stable enough for PET applications.

In the case of `N[C@@H](CCC(=O)N[C@@H](CSC1CC(=O)N(CCCCCCON=C[C@H](O)[C@H](O)[C@H](O)CF)C1=O)C(=O)NCC(=O)O)C(=O)O` (stereo partly shown) [conjugate 4a], the “stable in phosphate-buffered saline (PBS)” value is reported as ≥ 8 h.
